This is an account of results in publication PMC3625871.

The data set addresses T1, AtVOZ2m (Arabidopsis thaliana, UniProt Q9SLB9 1-450, C249A;H253A).
T1 sequence: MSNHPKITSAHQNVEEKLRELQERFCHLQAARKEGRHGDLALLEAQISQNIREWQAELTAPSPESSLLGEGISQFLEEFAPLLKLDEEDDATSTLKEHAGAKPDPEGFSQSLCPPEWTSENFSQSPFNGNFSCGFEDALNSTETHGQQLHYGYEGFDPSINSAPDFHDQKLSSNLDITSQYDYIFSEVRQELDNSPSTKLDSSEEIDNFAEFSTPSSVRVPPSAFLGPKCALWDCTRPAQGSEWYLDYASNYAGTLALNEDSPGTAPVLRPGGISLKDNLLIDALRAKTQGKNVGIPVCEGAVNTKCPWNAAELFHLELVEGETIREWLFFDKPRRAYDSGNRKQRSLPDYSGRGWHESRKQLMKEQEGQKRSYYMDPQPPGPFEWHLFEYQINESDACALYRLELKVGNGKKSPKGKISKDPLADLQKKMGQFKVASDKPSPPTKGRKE
Description: EMSA.

B1: pMOS3 (dsDNA)
DNA 1: GACGTCCGGCGCAGCGTTTATCAGACGCTGGGATTAAAACA
DNA 2: TGTTTTAATCCCAGCGTCTGATAAACGCTGCGCCGGACGTC
Regarding B1, the binding result is “no binding”.
